Experimental data: PMC6461089, “Characterization of the phosphotransacetylase-acetate kinase pathway for ATP production in Porphyromonas gingivalis” (Journal of Oral Microbiology, 2019)

How the values were obtained:
Type in all cases: biochemical, Porphyromonas gingivalis
[1] = substrate: CC(=O)SCCNC(=O)CCNC(=O)[C@H](O)C(C)(C)COP(=O)(O)OP(=O)(O)OC[C@H]1O[C@@H](n2cnc3c(N)ncnc32)[C@H](O)[C@@H]1OP(=O)(O)O; test: acetyl-CoA consumption at A233, Michaelis-Menten fit; conditions: 100 mM Tris/phosphate pH 9.0 (phosphate co-substrate), 20 mM KCl, 37°C, acetyl-CoA 50-200 µM
Text: acetyl-CoA consumption at A233, Michaelis-Menten fit on PgPta (PGN_1179)

[2] = substrate: CC(=O)OP(=O)(O)O; test: ATP formation coupled to hexokinase / glucose-6-phosphate dehydrogenase (NADPH, A340), secondary plots; conditions: co-substrate ADP (0.267-2.67 mM, extrapolated), 50 mM Tris/HCl pH 8.0, 1.3 mM MgCl2 (methods also mention MnCl2), 37°C
Text: (§1) ATP formation coupled to hexokinase / glucose-6-phosphate dehydrogenase (NADPH, A340), secondary plots on PgAck (PGN_1178)

[3] = substrate: Nc1ncnc2c1ncn2[C@@H]1O[C@H](COP(=O)(O)OP(=O)(O)O)[C@@H](O)[C@H]1O; test: as above; conditions: co-substrate AcP (0.0667-0.667 mM, extrapolated), 50 mM Tris/HCl pH 8.0, 1.3 mM MgCl2 (methods also mention MnCl2), 37°C
Text: as §1

B1: PgPta (PGN_1179) (Porphyromonas gingivalis ATCC 33277) (protein)
chain: MDLIQDVIRRAQENKQRIVLPEGLEPRTLEAADRLMADKVVNIILIGNVDSVKAKVAELGLKNLDEAVIIDPNNHPKKQQYTDLLLQIRQKKGLTPEKAAELVENPLYLGCLIVKSGDADGLIAGAQNTTGDVLRPALQVIKTAPGMTSVSGTFLLFTKAKEYGKDGLLLVADCAVIPNPTADELAQIAVATARTAKAIADIEPRVAMLSFSTKGSAKHEMTDKVVEATRMAQEMAPDLLIDGEMQADAALVERVAALKAPGSNVAGKANVLVFPTLEVGNIAYKLVERLGHAEAVGPILQGMAAPVNDLSRGCSVEDIYRMVAITANQAIAAKEQ
notes: full length (domains span residues 1-336), E. coli BL21(DE3), pGEX-6P-1, GST tag cut off by PreScission protease; EC 2.3.1.8
Protein B1 has a Km [1] of 63.8 ± 7.5 µM, a Vmax [1] of 2470 ± 105 µmol/min/mg and a kcat [1] of 1490 ± 63 s⁻¹.

B2: PgAck (PGN_1178) (Porphyromonas gingivalis ATCC 33277) (protein)
chain: MKVLVLNCGSSSVKYKLLEMPKGDVLAQGGVEKLGLPGSFLKLTMPNGEKVVLEKDMPEHTIAVEFILSVLKDDKYGCIKSYEEIDAVGHRLVHGGEKFSNSVEITPEVIAKVEECIPLAPLHNPANLKGVVAIEKLLPGIRQVGVFDTAFFQTMPEHVYRYALPYDMCNKHGVRRYGFHGTSHRYVSARACEILGLDYDKTRIITAHIGNGASIAAIKNGKALDVSLGMTPVEGLMMGTRSGDVDPGVLTFLMEAEGLQAAGISELINKKSGVLGVSGVSSDLREIEDAIKNGNERATLAMTMYDYRIKKYVGAYAAAMGGVDVLVFTGGVGENQYTTREKVCTDMEFMGIVFDSKVNEGMRGKEMVISKPESKVTVIVVPTDEEYMIASDTMTILK
notes: full length (398 residues), E. coli BL21(DE3), pET28a, N-terminal His6 tag cut off by thrombin; homodimer (108 kDa by gel filtration); EC 2.7.2.1
Work on B2 yielded a Km [2] of 22.2 ± 0.2 µM, a Vmax [2] of 145 µmol/min/mg and a kcat [2] of 105 ± 1 s⁻¹. For the same protein, the Km [3] was 188 ± 22 µM, the Vmax [3] was 145 µmol/min/mg and the kcat [3] was 105 ± 1 s⁻¹.
